According to paper PMC4020579 (Biochemistry, 2014):
Each block holds one molecule with its values, some of them ahead of it.

Experiments:
[1] = Solubility of RPA32C in crystallization screening; format: physicochemical; conditions: all sparse matrix conditions examined, standard buffer conditions
[2] = target: RPA32C, the optimized RPA32_(202–270) construct (C-terminal winged-helix domain of the RPA 32 kDa subunit) (UniProt P15927 202-270); test: NMR titration
[3] = target: RPA32_(172–270), the previously reported RPA32C construct of the replication protein A 32 kDa subunit (UniProt P15927 172-270); test: ITC
Chain of RPA32_(172–270), the previously reported RPA32C construct of the replication protein A 32 kDa subunit (P15927 172-270): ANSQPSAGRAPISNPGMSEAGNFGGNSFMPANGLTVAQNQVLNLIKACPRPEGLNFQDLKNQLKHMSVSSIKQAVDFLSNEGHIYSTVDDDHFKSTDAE

Chain of RPA32C, the optimized RPA32_(202–270) construct (C-terminal winged-helix domain of the RPA 32 kDa subunit) (P15927 202-270): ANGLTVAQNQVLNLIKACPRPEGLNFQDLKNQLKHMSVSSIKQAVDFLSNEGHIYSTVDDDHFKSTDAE

Molecule: RPA32C: optimized C-terminal winged-helix domain construct of the RPA 32 kDa subunit, residues 202–270
concentration at which soluble [1]: ≥ 40000 µg/mL

binding result [2]: binds
Molecule: EEQRKKIEENRQKALARRAEKLLAEQ (peptide, UniProt Q9NZC9 7-32, looked up) [SMARCAL1_(7–32) peptide]

Kd [3]: 2500 ± 100 nM
Molecule: MSLPLTEEQRKKIEENRQKALARRAEKLLAEQ (peptide, UniProt Q9NZC9 1-32, looked up) [SMARCAL1_(1–32), SMARCAL1 residues 1–32 containing the RPA binding motif (RBM)]
